Results on 8 substances are retold here after US20110009283A1.

Test [1] has as its target Rattus Kv1.2 (Rattus) (UniProt P63142). As to the kind of experiment: two-electrode voltage clamp, kinetics of block in Xenopus oocytes.
For test [2] the target is unchanged. Put plainly: two-electrode voltage clamp, block of currents in Xenopus oocytes, dose-response fit.
Test [3] addresses KcsA-Kv1.3 (KcsA carrying a segment of the Kv1.3 pore loop).
Test [4] deals with Kv1.3 K+ channel, wild-type, expressed in cells (species not stated) (Homo sapiens (Human)) (UniProt P22001). Put plainly: cell-based or functional assay.
Test [5] deals with KcsA-Kv1.3 (KcsA carrying a segment of the Kv1.3 pore loop). The source holds these as a separate data set.
Test [6] concerns the target Kv1.1 K+ channel (species not stated). Put plainly: cell-based or functional assay.
Test [7] addresses BK channel (species not stated). As to the kind of experiment: cell-based or functional assay.
Test [8] concerns the target Kv1.2 K+ channel (species not stated). As to the kind of experiment: cell-based or functional assay.
The target in test [9] is Homo Kv1.3 (Homo) (UniProt P22001). Put plainly: cell-based or functional assay.
For test [10] the target is unchanged. As to the kind of experiment: two-electrode voltage clamp, block of currents in Xenopus oocytes, dose-response fit.
Test [11] has as its target KcsA-Kv1.3 (KcsA carrying a segment of the Kv1.3 pore loop). The source holds these as a separate data set.
Test [12] has the same target. This is another data set of the same source.
For test [13], the target named is Kv1.3 K+ channel, wild-type, expressed in cells (species not stated) (Homo sapiens (Human)) (UniProt P22001). Put plainly: panning of a 2:2:96 phage mixture on HEK cells expressing Kv1.3.
Target sequence in this assay (P22001 whole entry, form in doubt): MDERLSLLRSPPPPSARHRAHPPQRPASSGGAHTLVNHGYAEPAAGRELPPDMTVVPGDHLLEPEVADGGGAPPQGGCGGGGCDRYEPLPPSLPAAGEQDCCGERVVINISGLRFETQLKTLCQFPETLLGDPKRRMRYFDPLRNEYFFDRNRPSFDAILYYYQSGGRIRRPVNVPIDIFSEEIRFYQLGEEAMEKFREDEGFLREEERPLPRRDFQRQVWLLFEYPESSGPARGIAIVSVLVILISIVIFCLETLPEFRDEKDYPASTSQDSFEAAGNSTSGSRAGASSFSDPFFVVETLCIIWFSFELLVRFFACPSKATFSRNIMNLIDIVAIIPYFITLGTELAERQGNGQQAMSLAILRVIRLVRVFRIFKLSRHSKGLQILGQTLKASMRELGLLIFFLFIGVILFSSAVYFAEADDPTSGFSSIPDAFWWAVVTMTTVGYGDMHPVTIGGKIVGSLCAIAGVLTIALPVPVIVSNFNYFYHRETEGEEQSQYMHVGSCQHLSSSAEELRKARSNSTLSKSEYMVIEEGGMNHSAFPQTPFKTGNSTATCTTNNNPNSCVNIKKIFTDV
The target of test [14] is KcsA-Kv1.3 (KcsA carrying a segment of the Kv1.3 pore loop). Put plainly: phage library panning on immobilized KcsA-1.3.

Sequence of Homo Kv1.3 (Homo) (P22001 whole entry): as the sequence (P22001 whole entry, form in doubt) above
Sequence of Rattus Kv1.2 (Rattus) (P63142 whole entry): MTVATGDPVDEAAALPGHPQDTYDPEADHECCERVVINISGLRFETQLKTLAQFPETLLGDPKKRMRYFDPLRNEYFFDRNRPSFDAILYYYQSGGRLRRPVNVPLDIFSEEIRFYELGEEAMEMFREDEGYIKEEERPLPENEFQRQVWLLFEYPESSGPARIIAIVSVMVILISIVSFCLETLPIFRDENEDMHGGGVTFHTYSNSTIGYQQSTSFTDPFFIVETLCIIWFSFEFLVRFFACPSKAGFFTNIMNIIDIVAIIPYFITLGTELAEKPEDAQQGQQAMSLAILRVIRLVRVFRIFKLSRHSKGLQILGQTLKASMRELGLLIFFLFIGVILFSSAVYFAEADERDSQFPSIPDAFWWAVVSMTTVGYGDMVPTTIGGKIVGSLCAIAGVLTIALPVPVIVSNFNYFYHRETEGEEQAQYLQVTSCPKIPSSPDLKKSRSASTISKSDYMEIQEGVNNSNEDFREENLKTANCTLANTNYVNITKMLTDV

Regarding “mokatoxin-1 (MK-1), synthesized peptide (peptide; other documents disagree on this pair)”, in the test with Rattus Kv1.2 (Rattus) [1], the koff worked out at 0.16 s⁻¹ and the on-rate (kon) was determined as 260000 M⁻¹ s⁻¹. In the test with Rattus Kv1.2 (Rattus) [2], this substance returned a Ki of 0.62 µM.

Turning to “fasciculin-2 phage (from UniProt P0C1Z0 1-61) (peptide)”, the Output (% Ligands) in test [3] amounted to 0%.

Substance “Ce3 (Centruroides elegans toxin Ce3) (peptide)” gave an approximate IC50 (nM) of channel block in test [4] of 366 nM.

In the case of “Kaliotoxin-1 phage (KTX-phage) (peptide)”, in test [3], the Output (% Ligands) stood at 100%. Further, the Fold Enrichment in test [5] was 3.6 fold.

For mokatoxin-1 (MK-1), synthesized peptide, the approximate IC50 (nM) of channel block in [6] was greater than 1000 nM; in test [7] it was greater than 1000 nM; in test [4], 3 nM; in test [8], 680 nM. In the test with Homo Kv1.3 (Homo) [9], the decrease in IL-2 secretion by CD3/CD28-activated human T cells at 10 nM was found to be 50%. The substance also gave a decrease in TNF-α secretion by CD3/CD28-activated human T cells at 10 nM with Homo Kv1.3 (Homo) [9] of 50%. Besides, the lowest concentration inhibiting cytokine secretion by T cells with Homo Kv1.3 (Homo) [9] came to 1 nM. Besides, the Ki with Homo Kv1.3 (Homo) [10] was determined as 0.001 µM.

“Shk phage (sea anemone K+ channel toxin ShK on phage) (peptide)” returned a % phages, OUTPUT in test [11] of 20%.

As to “Dendroaspis natriuretic peptide (DNP) phage (from UniProt P28374 1-38)”, the Output (% Ligands) in [3] turned out to be 0%.

Substance mokatoxin-1-phage (peptide) had a % of the phage isolated after two rounds of selection in test [12] of 60%. For the same substance, the % of phages after the 2nd panning in test [13] worked out at 15%. In addition, the % of the eluted phage after two rounds of panning in [14] amounted to 16.6%.
